Measurements published in patent publication US10660972B2, “Methods for coupling targeting peptides onto recombinant lysosomal enzymes for improved treatments of lysosomal storage diseases” (AMICUS THERAPEUTICS, INC., priority 2011, dated 2020).

Experiments:
[1] = tested on: lysosomal enzyme activity (rhGAA, I2S); experiment: Enzyme activity of lysosomal enzyme after conjugation or deglycosylation; assay type: biochemical, human; details: after conjugation of variant IGF2 peptide (data not shown)
Excerpt: The high-mannose type N-glycans on rhGAA is problematic because it is believed that these carbohydrates cause the protein to be rapidly cleared from the circulation via macrophage and splenic mannose receptors. […] Deglycosylation of rhGAA can be performed after the enzyme is modified with S-Hynic and purified (via size exclusion chromatography or dialysis to remove excess crosslinker). This strategy allows for complete deglycosylation of rhGAA over 1-5 days using EndoF or EndoH without affecting enzyme activity. The deglycosylated hydrazide-modified rhGAA is then conjugated to PEG4-benzaldehyde-modified IGF-2 peptides. Alternatively, rhGAA deglycosylation can be performed concurrently during the conjugation of PEG4-benzaldehyde-modified IGF-2 peptide to hydrazide-modified rhGAA using high concentrations of EndoF or EndoH. Deglycosylated, IGF2 peptide-conjugated rhGAA is then purified by gel filtration chromatography or dialysis to remove excess phosphine-modified IGF-2 peptides and stored in acidic pH buffer (50 mM sodium phosphate, pH 6.2/100 mM NaCl/0.05% Polysorbate-80). […]
To assess the functional effects of IGF2 peptide for the cellular uptake of exogenous lysosomal enzymes, the internalization of IGF2-conjugated rbGAA (vIGF2-rhGAA) was evaluated in L6 rat skeletal muscle myoblasts. […]

Fabry disease = details: 1 mg/kg body weight every other week; cited from earlier work
IGF-2/CI-MPR = IGF-2/CI-MPR (Homo sapiens, UniProt P11717); details: ligand affinity for IGF-2/CI-MPR; read-out: Binding Affinity (Apparent Kd; nM); cited from earlier work
Chain of IGF-2/CI-MPR (P11717 41-2491): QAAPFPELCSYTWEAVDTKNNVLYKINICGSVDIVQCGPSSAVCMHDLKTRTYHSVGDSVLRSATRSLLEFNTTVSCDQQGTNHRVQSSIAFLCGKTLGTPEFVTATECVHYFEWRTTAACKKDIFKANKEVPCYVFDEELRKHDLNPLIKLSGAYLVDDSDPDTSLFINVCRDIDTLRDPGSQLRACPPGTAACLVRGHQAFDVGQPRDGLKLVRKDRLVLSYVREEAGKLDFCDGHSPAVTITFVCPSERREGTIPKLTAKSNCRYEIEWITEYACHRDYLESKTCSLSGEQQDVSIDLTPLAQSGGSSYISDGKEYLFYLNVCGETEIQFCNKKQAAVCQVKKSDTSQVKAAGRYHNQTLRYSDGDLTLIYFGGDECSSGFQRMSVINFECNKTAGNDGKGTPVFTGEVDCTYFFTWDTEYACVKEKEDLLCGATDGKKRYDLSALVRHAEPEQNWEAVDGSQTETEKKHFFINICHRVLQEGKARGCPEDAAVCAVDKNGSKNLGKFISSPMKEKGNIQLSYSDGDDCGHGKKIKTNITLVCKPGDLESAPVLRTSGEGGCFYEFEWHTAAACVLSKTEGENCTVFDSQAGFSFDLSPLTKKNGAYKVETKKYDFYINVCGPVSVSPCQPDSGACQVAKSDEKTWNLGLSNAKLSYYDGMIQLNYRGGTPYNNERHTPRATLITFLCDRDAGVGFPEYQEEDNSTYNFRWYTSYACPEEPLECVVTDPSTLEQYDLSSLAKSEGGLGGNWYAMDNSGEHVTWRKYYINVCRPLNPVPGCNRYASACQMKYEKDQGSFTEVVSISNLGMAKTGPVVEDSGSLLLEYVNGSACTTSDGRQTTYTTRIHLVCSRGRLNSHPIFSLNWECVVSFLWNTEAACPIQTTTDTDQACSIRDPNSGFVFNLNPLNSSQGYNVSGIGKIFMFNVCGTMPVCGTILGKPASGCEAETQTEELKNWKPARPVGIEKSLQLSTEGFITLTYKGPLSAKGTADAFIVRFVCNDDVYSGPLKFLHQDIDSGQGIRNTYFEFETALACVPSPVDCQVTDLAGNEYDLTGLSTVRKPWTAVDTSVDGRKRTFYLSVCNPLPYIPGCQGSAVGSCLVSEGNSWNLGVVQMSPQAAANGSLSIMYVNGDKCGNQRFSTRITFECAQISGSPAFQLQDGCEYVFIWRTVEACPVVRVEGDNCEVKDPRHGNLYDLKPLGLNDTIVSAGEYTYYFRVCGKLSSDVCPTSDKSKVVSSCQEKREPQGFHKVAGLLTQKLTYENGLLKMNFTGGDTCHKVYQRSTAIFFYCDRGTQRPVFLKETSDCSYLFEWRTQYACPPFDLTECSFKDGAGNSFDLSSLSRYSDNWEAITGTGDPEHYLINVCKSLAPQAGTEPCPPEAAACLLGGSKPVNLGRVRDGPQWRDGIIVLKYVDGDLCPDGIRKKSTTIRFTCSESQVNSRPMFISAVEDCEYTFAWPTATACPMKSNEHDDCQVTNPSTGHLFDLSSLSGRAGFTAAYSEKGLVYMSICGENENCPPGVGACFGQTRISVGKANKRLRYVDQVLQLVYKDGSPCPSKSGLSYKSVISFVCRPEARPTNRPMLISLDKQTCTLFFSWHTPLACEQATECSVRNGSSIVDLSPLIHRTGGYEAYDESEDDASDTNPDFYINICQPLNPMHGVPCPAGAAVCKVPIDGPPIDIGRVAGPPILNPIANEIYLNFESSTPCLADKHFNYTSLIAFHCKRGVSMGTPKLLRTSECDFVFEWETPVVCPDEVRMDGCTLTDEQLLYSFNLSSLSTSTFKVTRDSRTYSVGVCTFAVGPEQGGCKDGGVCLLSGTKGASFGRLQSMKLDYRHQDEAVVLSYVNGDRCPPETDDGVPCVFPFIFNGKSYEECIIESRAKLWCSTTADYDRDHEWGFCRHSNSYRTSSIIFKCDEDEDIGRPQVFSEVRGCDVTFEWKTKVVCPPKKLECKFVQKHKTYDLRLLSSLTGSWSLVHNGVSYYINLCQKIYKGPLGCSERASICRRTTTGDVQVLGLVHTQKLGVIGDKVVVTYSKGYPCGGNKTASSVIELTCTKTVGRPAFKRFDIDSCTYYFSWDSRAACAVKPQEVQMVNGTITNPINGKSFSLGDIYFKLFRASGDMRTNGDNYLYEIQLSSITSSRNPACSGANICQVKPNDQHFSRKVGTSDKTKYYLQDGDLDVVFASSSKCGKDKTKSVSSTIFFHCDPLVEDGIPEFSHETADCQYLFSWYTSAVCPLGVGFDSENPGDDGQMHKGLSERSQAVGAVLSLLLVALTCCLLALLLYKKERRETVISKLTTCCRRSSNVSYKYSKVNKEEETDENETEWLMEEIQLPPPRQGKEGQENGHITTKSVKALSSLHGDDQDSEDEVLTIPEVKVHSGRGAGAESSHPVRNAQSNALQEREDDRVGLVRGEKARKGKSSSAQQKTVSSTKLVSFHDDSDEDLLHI

B1: I2S: Recombinant human acid iduronidate 2-sulfatase (protein, UniProt P22304 34-455; P22304 456-550, looked up)
Iduronate 2-sulfatase 42 kDa …: TDALNVLLIIVDDLRPSLGCYGDKLVRSPNIDQLASHSLLFQNAFAQQAVCAPSRVSFLTGRRPDTTRLYDFNSYWRVHAGNFSTIPQYFKENGYVTMSVGKVFHPGISSNHTDDSPYSWSFPPYHPSSEKYENTKTCRGPDGELHANLLCPVDVLDVPEGTLPDKQSTEQAIQLLEKMKTSASPFFLAVGYHKPHIPFRYPKEFQKLYPLENITLAPDPEVPDGLPPVAYNPWMDIRQREDVQALNISVPYGPIPVDFQRKIRQSYFASVSYLDTQVGRLLSALDDLQLANSTIIAFTSDHGWALGEHGEWAKYSNFDVATHVPLIFYVPGRTASLPEAGEKLFPYLDPFDSASQLMEPGRQSMDLVELVSLFPTLAGLAGLQVPPRCPVPSFHVELCREGKNLLKHFRFRDLEEDPYLPG
Iduronate 2-sulfatase 14 kDa …: NPRELIAYSQYPRPSDIPQWNSDKPSLKDIKIMGYSIRTIDYRYTVWVGFNPDEFLANFSDIHAGELYFVDSDPLQDHNMYNDSQGGDLFQLLMP
effect of chemical conjugation of variant IGF2 peptide on enzyme activity [1]: did not affect enzyme activity

B2: Fabrazyme: recombinant acid α-galactosidase A; Genzyme Corp. (protein, UniProt P06280 32-429, looked up)
Alpha-galactosidase A: LDNGLARTPTMGWLHWERFMCNLDCQEEPDSCISEKLFMEMAELMVSEGWKDAGYEYLCIDDCWMAPQRDSEGRLQADPQRFPHGIRQLANYVHSKGLKLGIYADVGNKTCAGFPGSFGYYDIDAQTFADWGVDLLKFDGCYCDSLENLADGYKHMSLALNRTGRSIVYSCEWPLYMWPFQKPNYTEIRQYCNHWRNFADIDDSWKSIKSILDWTSFNQERIVDVAGPGGWNDPDMLVIGNFGLSWNQQVTQMALWAIMAAPLFMSNDLRHISPQAKALLQDKDVIAINQDPLGKQGYQLRQGDNFEVWERPLSGLAWAVAMINRQEIGGPRSYTIAVASLGKGVACNPACFITQLLPVKRKLGFYEWTSRLRSHINPTGTVLLQLENTMQMSLKDLL
clinical effectiveness in Fabry disease (Fabry disease): sufficient to clear accumulated substrate from endothelial cells

B3: beta-galactosidase: lysosomal enzyme listed as ligand of IGF-2/CI-MPR (protein, UniProt P16278 29-677, looked up)
Beta-galactosidase: QRMFEIDYSRDSFLKDGQPFRYISGSIHYSRVPRFYWKDRLLKMKMAGLNAIQTYVPWNFHEPWPGQYQFSEDHDVEYFLRLAHELGLLVILRPGPYICAEWEMGGLPAWLLEKESILLRSSDPDYLAAVDKWLGVLLPKMKPLLYQNGGPVITVQVENEYGSYFACDFDYLRFLQKRFRHHLGDDVVLFTTDGAHKTFLKCGALQGLYTTVDFGTGSNITDAFLSQRKCEPKGPLINSEFYTGWLDHWGQPHSTIKTEAVASSLYDILARGASVNLYMFIGGTNFAYWNGANSPYAAQPTSYDYDAPLSEAGDLTEKYFALRNIIQKFEKVPEGPIPPSTPKFAYGKVTLEKLKTVGAALDILCPSGPIKSLYPLTFIQVKQHYGFVLYRTTLPQDCSNPAPLSSPLNGVHDRAYVAVDGIPQGVLERNNVITLNITGKAGATLDLLVENMGRVNYGAYINDFKGLVSNLTLSSNILTDWTIFPLDTEDAVRSHLGGWGHRDSGHHDEAWAHNSSNYTLPAFYMGNFSIPSGIPDLPQDTFIQFPGWTKGQVWINGFNLGRYWPARGPQLTLFVPQHILMTSAPNTITVLELEWAPCSSDDPELCAVTFVDRPVIGSSVTYDHPSKPVEKRLMPPPPQKNKDSWLDHV
Kd (IGF-2/CI-MPR): 20 nM
